The results in this text go back to US20240100176A1 (Eli Lilly, published 2024).

Holding throughout (test): capture ELISA: Ab1 on anti-human IgG Fc, His-tagged receptor at 1 µg/mL, anti-His HRP
In general terms: An ELISA detects its analyte on a solid surface through an enzyme-linked reagent.

In assay [1] the target is T1, hexahistidine tagged human IL-4Rα ECD T31R (human, UniProt P24394 26-232).
T1 construct: not shown: hexahistidine tag
From the text:
(§1) Example 2d. […] Briefly, thirty surface amino acid residue substitutions were introduced individually into hexahistidine tagged human IL-4Rα extra cellular domain (ECD) as follows: K2D, E6R, K22D, P26R, T31R, F41A, L42G, L43G, E45R, E52R, G56R, D66R, A71R, Q82G, K87D, E94R, H107A, D108R, P124R, D125R, D143R, R148D, L155R, R160D, S164R, S168R, Q181R, P192R, K195D, or H197G. Each mutant protein having a single amino acid residue substitution as described above was transiently expressed in CHO cells and purified using standard immobilized metal affinity chromatography techniques. […] The plates were then washed 3 times with PBST and the exemplified human IL-4Rα antibody was added to the wells at a final concentration of 1 μg/mL in PBS-casein and incubated for 1 hour at room temperature. The plates were washed 3 times with PBST, the IL-4Rα mutant proteins were serially diluted 5-fold from 1 μg/mL for 3 points. in PBS-casein and added to the plate at 50 μL/well and incubated for 1 hour at room temperature. The plates were washed 3 times with PBST and a 1000-fold dilution of anti-histidine tag antibody HRP conjugate (R&D Systems, Cat. #MAB050H) in PBS-casein was added and incubated for 45 minutes at room temperature. The plates were washed 3 times, TMB substrate (Pierce, Cat. #34028) was added per manufacturer instructions, the reaction was quenched with H₂SO₄, and absorbance was read at 450 nm on an ELISA plate reader.

Assay [2] addresses T2, hexahistidine tagged human IL-4Rα ECD F41A (human, UniProt P24394 26-232).
T2 construct: not shown: hexahistidine tag
Source text: as §1

For assay [3], the target named is T3, hexahistidine tagged human IL-4Rα ECD L42G (human, UniProt P24394 26-232).
T3 construct: not shown: hexahistidine tag
Source text: as §1

Assay [4] deals with T4, hexahistidine tagged human IL-4Rα ECD E45R (human, UniProt P24394 26-232).
T4 construct: not shown: hexahistidine tag
Source text: as §1

Assay [5] addresses T5, hexahistidine tagged human IL-4Rα ECD E52R (human, UniProt P24394 26-232).
T5 construct: not shown: hexahistidine tag
Source text: as §1

In assay [6] the target is T6, hexahistidine tagged human IL-4Rα ECD A71R (human, UniProt P24394 26-232).
T6 construct: not shown: hexahistidine tag
Source text: as §1

Assay [7] addresses T7, hexahistidine tagged human IL-4Rα ECD K87D (human, UniProt P24394 26-232).
T7 construct: not shown: hexahistidine tag
Source text: as §1

Assay [8] has as its target T8, hexahistidine tagged human IL-4Rα ECD T108R (human, UniProt P24394 26-232).
T8 construct: also called D108R; not shown: hexahistidine tag
Source text: as §1

Assay [9] deals with T9, hexahistidine tagged human IL-4Rα ECD P124R (human, UniProt P24394 26-232).
T9 construct: not shown: hexahistidine tag
Source text: as §1

Assay [10] addresses T10, hexahistidine tagged human IL-4Rα ECD R148D (human, UniProt P24394 26-232).
T10 construct: not shown: hexahistidine tag
Source text: as §1

Assay [11] has as its target T11, hexahistidine tagged human IL-4Rα ECD L155R (human, UniProt P24394 26-232).
T11 construct: not shown: hexahistidine tag
Source text: as §1

For assay [12], the target named is T12, hexahistidine tagged human IL-4Rα ECD R160D (human, UniProt P24394 26-232).
T12 construct: not shown: hexahistidine tag
Source text: as §1

Assay [13] deals with T13, hexahistidine tagged human IL-4Rα ECD S164R (human, UniProt P24394 26-232).
T13 construct: not shown: hexahistidine tag
Source text: as §1

The target of assay [14] is T14, hexahistidine tagged human IL-4Rα ECD S168R (human, UniProt P24394 26-232).
T14 construct: not shown: hexahistidine tag
Source text: as §1

In assay [15] the target is T15, hexahistidine tagged human IL-4Rα ECD Q181R (human, UniProt P24394 26-232).
T15 construct: not shown: hexahistidine tag
Source text: as §1

Assay [16] has as its target T16, hexahistidine tagged human IL-4Rα ECD P192R (human, UniProt P24394 26-232).
T16 construct: not shown: hexahistidine tag
Source text: as §1

For assay [17], the target named is T17, hexahistidine tagged human IL-4Rα ECD K195D (human, UniProt P24394 26-232).
T17 construct: not shown: hexahistidine tag
Source text: as §1

Assay [18] addresses T18, hexahistidine tagged human IL-4Rα ECD H197G (human, UniProt P24394 26-232).
T18 construct: not shown: hexahistidine tag
Source text: as §1

T3 sequence (P24394 26-232 L67G): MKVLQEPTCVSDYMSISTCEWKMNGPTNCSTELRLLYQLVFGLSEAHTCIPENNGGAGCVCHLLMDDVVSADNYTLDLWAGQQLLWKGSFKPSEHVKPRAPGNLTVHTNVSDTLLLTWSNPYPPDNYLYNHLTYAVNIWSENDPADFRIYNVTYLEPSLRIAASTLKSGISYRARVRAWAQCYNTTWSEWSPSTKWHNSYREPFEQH
T12 sequence (P24394 26-232 R185D): as the sequence (P24394 26-232 L67G) above, with G42L, R160D counted along it
T1 sequence (P24394 26-232 T56R): as the sequence (P24394 26-232 L67G) above, with T31R, G42L counted along it
T4 sequence (P24394 26-232 E70R): as the sequence (P24394 26-232 L67G) above, with G42L, E45R counted along it
T6 sequence (P24394 26-232 A96R): as the sequence (P24394 26-232 L67G) above, with G42L, A71R counted along it
T10 sequence (P24394 26-232 R173D): as the sequence (P24394 26-232 L67G) above, with G42L, R148D counted along it
T15 sequence (P24394 26-232 Q206R): as the sequence (P24394 26-232 L67G) above, with G42L, Q181R counted along it
T11 sequence (P24394 26-232 L180R): as the sequence (P24394 26-232 L67G) above, with G42L, L155R counted along it
T9 sequence (P24394 26-232 P149R): as the sequence (P24394 26-232 L67G) above, with G42L, P124R counted along it
T5 sequence (P24394 26-232 E77R): as the sequence (P24394 26-232 L67G) above, with G42L, E52R counted along it

B1: anti-human IL-4Rα antibody Ab1 (antibody, human IgG4 S228P, kappa)
heavy: QVQLVESGGGLVQPGGSLRLSCVASGFTFSHSSMNWVRQAPGKGLEWVSYISRATGAVYYADSVKGRFTISRDNAKNSLYLQMNSLRDEDTAVYYCAREPVFDYWGQGTLVTVSSASTKGPCVFPLAPCSRSTSESTAALGCLVKDYFPEPVTVSWNSGALTSGVHTFPAVLQSSGLYSLSSVVTVPSSSLGTKTYTCNVDHKPSNTKVDKRVESKYGPPCPPCPAPEFLGGPSVFLFPPKPKDTLMISRTPEVTCVVVDVSQEDPEVKFNWYVDGVEVHNAKTKPREEQFNSTYRVVSVLTVLHQDWLNGKEYKCKVSNKGLPSSIEKTISKAKGQPREPQVYTLPPSREEMTKNQVSLTCLVKGFYPSDICVEWESNGQPENNYKTTPPVLDSDGSFFLYSRLTVDKSRWQQGNVFSCSVMHEALHNHYTQKSLSLSLG
light: DIQMTQSPSAMSASVGDRVTITCRASQDISNYLAWFQQKPGKVPTRLIYAASSLQSGVPSRFSGSGSGTEFTLTISSLQPEDFATYYCLQWSSYPRTFGQGTKVEIKRTVAAPSVFIFPPSDEQLKSGTASVVCLLNNFYPREAKVQWKVDNALQSGNSQESVTEQDSKDSTYSLSSTLTLSKADYEKHKVYACEVTHQGLSSPVTKSFNRGEC
notes: human kappa light chain; also called anti-human IL-4Rα Ab1; unconjugated Ab1
For the molecule B1, the “ELISA (OD450)” value worked out at 1.64 OD450 in [1]; 1.76 OD450 in [2]; 1.71 OD450 in assay [3]; 1.7 OD450 in assay [4]; 1.73 OD450 in assay [5]; 1.7 OD450 in assay [6]. Further, the “ELISA (OD450)” value was 1.75 OD450 in [7]; 1.88 OD450 in [8]; 1.84 OD450 in assay [9]; 1.76 OD450 in [10]; 1.78 OD450 in assay [11]; 1.91 OD450 in [12]. For the same molecule, the “ELISA (OD450)” value in [13] stood at 1.92 OD450; in assay [14] it was 1.88 OD450; in [15], 1.91 OD450; in assay [16], 1.94 OD450; in [17] it was 1.91 OD450; in [18], 1.85 OD450.
